Test system: Escherichia coli TOP10
Experiment: shrunken log2 fold change of peptide-encoding DNA abundance (4.5 h post-induction vs induction); higher = less antimicrobial activity (less host growth inhibition)
Conditions: time post-induction: 4.5 h; library: site-saturation at positions 5, 18, 19, 20
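Also: peptides expressed intracellularly from a pBAD plasmid library in pooled LB shake-flask culture, induced with 0.3% L-arabinose, DNA abundance read by NGS, three biological replicates, DESeq2 with apeglm shrinkage.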

| Sequence | shrunken log2 fold change |
| --- | --- |
| RRIRYRPPRLPRPRPRPANGPRP | -0.6 |
| RRIRYRPPRLPRPRPRPANYPRP | -0.0328 |
| RRIRYRPPRLPRPRPRPAPHPRP | -0.247 |
| RRIRYRPPRLPRPRPRPAPYPRP | -0.557 |
| RRIRYRPPRLPRPRPRPAREPRP | 0.00627 |
| RRIRYRPPRLPRPRPRPATEPRP | 0.0247 |
| RRIRYRPPRLPRPRPRPAVAPRP | 0.159 |
| RRIRYRPPRLPRPRPRPAVFPRP | -0.0965 |
| RRIRYRPPRLPRPRPRPAVYPRP | -0.0166 |
| RRIRYRPPRLPRPRPRPAWSPRP | -0.292 |
| RRIRYRPPRLPRPRPRPAYAPRP | -0.236 |
| RRIRYRPPRLPRPRPRPCAFPRP | -0.353 |
| RRIRYRPPRLPRPRPRPCENPRP | -0.215 |
| RRIRYRPPRLPRPRPRPCGDPRP | -0.0424 |
| RRIRYRPPRLPRPRPRPCGIPRP | -0.00192 |
| RRIRYRPPRLPRPRPRPCGVPRP | 2.83 |
| RRIRYRPPRLPRPRPRPCIDPRP | -0.00448 |
| RRIRYRPPRLPRPRPRPCKFPRP | -0.931 |
| RRIRYRPPRLPRPRPRPCLFPRP | -0.931 |
| RRIRYRPPRLPRPRPRPCLPPRP | -0.409 |
| RRIRYRPPRLPRPRPRPCNPPRP | -0.217 |
| RRIRYRPPRLPRPRPRPCPCPRP | 0.0185 |
| RRIRYRPPRLPRPRPRPCRTPRP | -0.651 |
| RRIRYRPPRLPRPRPRPCSVPRP | -1.08 |
| RRIRYRPPRLPRPRPRPCTEPRP | -0.531 |

| Sequence | shrunken log2 fold change |
| --- | --- |
| RRIRYRPPRLPRPRPRPCWRPRP | -0.138 |
| RRIRYRPPRLPRPRPRPCWYPRP | -1.03 |
| RRIRYRPPRLPRPRPRPCYNPRP | -0.857 |
| RRIRYRPPRLPRPRPRPDADPRP | 0.00911 |
| RRIRYRPPRLPRPRPRPDASPRP | -0.00663 |
| RRIRYRPPRLPRPRPRPDCAPRP | -0.218 |
| RRIRYRPPRLPRPRPRPDCGPRP | -0.398 |
| RRIRYRPPRLPRPRPRPDDLPRP | -0.0432 |
| RRIRYRPPRLPRPRPRPDFQPRP | -0.409 |
| RRIRYRPPRLPRPRPRPDGHPRP | -0.024 |
| RRIRYRPPRLPRPRPRPDHGPRP | -0.0075 |
| RRIRYRPPRLPRPRPRPDHPPRP | 0.0184 |
| RRIRYRPPRLPRPRPRPDIAPRP | -0.0285 |
| RRIRYRPPRLPRPRPRPDKFPRP | -0.116 |
| RRIRYRPPRLPRPRPRPDLDPRP | -0.181 |
| RRIRYRPPRLPRPRPRPDLPPRP | -0.0756 |
| RRIRYRPPRLPRPRPRPDNGPRP | -0.00114 |
| RRIRYRPPRLPRPRPRPDPMPRP | -0.0159 |
| RRIRYRPPRLPRPRPRPDPNPRP | -0.57 |
| RRIRYRPPRLPRPRPRPDQDPRP | -0.0701 |
| RRIRYRPPRLPRPRPRPDRRPRP | -0.177 |
| RRIRYRPPRLPRPRPRPDTVPRP | 0.019 |
| RRIRYRPPRLPRPRPRPDYVPRP | -0.447 |
| RRIRYRPPRLPRPRPRPECRPRP | -0.142 |
| RRIRYRPPRLPRPRPRPECWPRP | 0.192 |

| Sequence | shrunken log2 fold change |
| --- | --- |
| RRIRYRPPRLPRPRPRPEDFPRP | -0.00133 |
| RRIRYRPPRLPRPRPRPEDNPRP | -0.0125 |
| RRIRYRPPRLPRPRPRPEETPRP | -0.119 |
| RRIRYRPPRLPRPRPRPEFFPRP | -0.0803 |
| RRIRYRPPRLPRPRPRPEGRPRP | 0.172 |
| RRIRYRPPRLPRPRPRPEGVPRP | -0.0041 |
| RRIRYRPPRLPRPRPRPEIAPRP | -0.185 |
| RRIRYRPPRLPRPRPRPEIMPRP | -0.272 |
| RRIRYRPPRLPRPRPRPEIRPRP | -0.0132 |
| RRIRYRPPRLPRPRPRPEKKPRP | -0.0472 |
| RRIRYRPPRLPRPRPRPEKTPRP | 0.0635 |
| RRIRYRPPRLPRPRPRPELLPRP | -0.157 |
| RRIRYRPPRLPRPRPRPEPGPRP | 0.215 |
| RRIRYRPPRLPRPRPRPEPKPRP | 0.0661 |
| RRIRYRPPRLPRPRPRPEQDPRP | -0.0203 |
| RRIRYRPPRLPRPRPRPERAPRP | 0.173 |
| RRIRYRPPRLPRPRPRPERMPRP | -0.459 |
| RRIRYRPPRLPRPRPRPERSPRP | -0.00131 |
| RRIRYRPPRLPRPRPRPETGPRP | -0.0691 |
| RRIRYRPPRLPRPRPRPEVCPRP | -0.0334 |
| RRIRYRPPRLPRPRPRPEVGPRP | 0.0159 |
| RRIRYRPPRLPRPRPRPEWVPRP | -0.0265 |
| RRIRYRPPRLPRPRPRPEYGPRP | -0.249 |
| RRIRYRPPRLPRPRPRPFAAPRP | -0.508 |
| RRIRYRPPRLPRPRPRPFDSPRP | -0.0136 |

| Sequence | shrunken log2 fold change |
| --- | --- |
| RRIRYRPPRLPRPRPRPFEKPRP | 0.021 |
| RRIRYRPPRLPRPRPRPFGAPRP | -0.391 |
| RRIRYRPPRLPRPRPRPFHAPRP | 0.207 |
| RRIRYRPPRLPRPRPRPFHLPRP | -0.532 |
| RRIRYRPPRLPRPRPRPFKRPRP | -0.294 |
| RRIRYRPPRLPRPRPRPFLSPRP | -0.0547 |
| RRIRYRPPRLPRPRPRPFMKPRP | -0.272 |
| RRIRYRPPRLPRPRPRPFNEPRP | -1.01 |
| RRIRYRPPRLPRPRPRPFPTPRP | -0.781 |
| RRIRYRPPRLPRPRPRPFQGPRP | 0.0712 |
| RRIRYRPPRLPRPRPRPFQWPRP | 0.0299 |
| RRIRYRPPRLPRPRPRPFTAPRP | -0.311 |
| RRIRYRPPRLPRPRPRPFTMPRP | -0.558 |
| RRIRYRPPRLPRPRPRPFTQPRP | -0.646 |
| RRIRYRPPRLPRPRPRPFVKPRP | -0.79 |
| RRIRYRPPRLPRPRPRPFVYPRP | -1.51 |
| RRIRYRPPRLPRPRPRPFWYPRP | -0.234 |
| RRIRYRPPRLPRPRPRPFYGPRP | 0.0392 |
| RRIRYRPPRLPRPRPRPGACPRP | -0.497 |
| RRIRYRPPRLPRPRPRPGAFPRP | -0.805 |
| RRIRYRPPRLPRPRPRPGAWPRP | 0.0731 |
| RRIRYRPPRLPRPRPRPGCWPRP | 0.289 |
| RRIRYRPPRLPRPRPRPGDGPRP | 0.0695 |
| RRIRYRPPRLPRPRPRPGEDPRP | -0.00904 |
| RRIRYRPPRLPRPRPRPGEGPRP | 0.00405 |

| Sequence | shrunken log2 fold change |
| --- | --- |
| RRIRYRPPRLPRPRPRPGFYPRP | -0.406 |
| RRIRYRPPRLPRPRPRPGGIPRP | -0.0836 |
| RRIRYRPPRLPRPRPRPGIVPRP | -0.384 |
| RRIRYRPPRLPRPRPRPGPYPRP | -0.771 |
| RRIRYRPPRLPRPRPRPGQMPRP | -0.553 |
| RRIRYRPPRLPRPRPRPGRSPRP | -0.184 |
| RRIRYRPPRLPRPRPRPGSCPRP | -0.308 |
| RRIRYRPPRLPRPRPRPGTLPRP | -0.803 |
| RRIRYRPPRLPRPRPRPGTNPRP | -0.163 |
| RRIRYRPPRLPRPRPRPGVDPRP | -0.0308 |
| RRIRYRPPRLPRPRPRPGVFPRP | -0.0987 |
| RRIRYRPPRLPRPRPRPGVGPRP | -0.103 |
| RRIRYRPPRLPRPRPRPHAWPRP | -0.129 |
| RRIRYRPPRLPRPRPRPHCEPRP | -0.00822 |
| RRIRYRPPRLPRPRPRPHCPPRP | -0.0417 |
| RRIRYRPPRLPRPRPRPHDKPRP | -0.661 |
| RRIRYRPPRLPRPRPRPHDQPRP | -0.188 |
| RRIRYRPPRLPRPRPRPHDYPRP | -0.119 |
| RRIRYRPPRLPRPRPRPHEAPRP | -0.215 |
| RRIRYRPPRLPRPRPRPHEIPRP | -0.194 |
| RRIRYRPPRLPRPRPRPHEWPRP | -0.0416 |
| RRIRYRPPRLPRPRPRPHHPPRP | -0.38 |
| RRIRYRPPRLPRPRPRPHHYPRP | -1.79 |
| RRIRYRPPRLPRPRPRPHKIPRP | -0.226 |
| RRIRYRPPRLPRPRPRPHKTPRP | -0.0572 |

| Sequence | shrunken log2 fold change |
| --- | --- |
| RRIRYRPPRLPRPRPRPHPDPRP | -0.299 |
| RRIRYRPPRLPRPRPRPHPGPRP | -0.727 |
| RRIRYRPPRLPRPRPRPHPWPRP | -0.542 |
| RRIRYRPPRLPRPRPRPHSYPRP | -0.188 |
| RRIRYRPPRLPRPRPRPHTDPRP | -0.368 |
| RRIRYRPPRLPRPRPRPHTVPRP | -1.21 |
| RRIRYRPPRLPRPRPRPHVEPRP | 0.0184 |
| RRIRYRPPRLPRPRPRPHWFPRP | -0.402 |
| RRIRYRPPRLPRPRPRPHYSPRP | -0.124 |
| RRIRYRPPRLPRPRPRPICHPRP | -0.305 |
| RRIRYRPPRLPRPRPRPICKPRP | -0.193 |
| RRIRYRPPRLPRPRPRPICTPRP | -0.376 |
| RRIRYRPPRLPRPRPRPIDKPRP | -0.00865 |
| RRIRYRPPRLPRPRPRPIETPRP | -0.0177 |
| RRIRYRPPRLPRPRPRPIGHPRP | 3.4 |
| RRIRYRPPRLPRPRPRPIHLPRP | -1.26 |
| RRIRYRPPRLPRPRPRPIHSPRP | -0.0447 |
| RRIRYRPPRLPRPRPRPIKHPRP | -0.693 |
| RRIRYRPPRLPRPRPRPILDPRP | -0.253 |
| RRIRYRPPRLPRPRPRPILMPRP | -0.0114 |
| RRIRYRPPRLPRPRPRPIMIPRP | -0.0191 |
| RRIRYRPPRLPRPRPRPIMVPRP | -0.152 |
| RRIRYRPPRLPRPRPRPINHPRP | -0.675 |
| RRIRYRPPRLPRPRPRPINKPRP | -1.43 |
| RRIRYRPPRLPRPRPRPIQFPRP | -0.00822 |

From the supplement of paper PMC9112550, “Optimization of the antimicrobial peptide Bac7 by deep mutational scanning” (BMC Biology, 2022)
